Experimental data reported in paper PMC3855764, “Oct4/Sox2 Binding Sites Contribute to Maintaining Hypomethylation of the Maternal Igf2/H19 Imprinting Control Region”.

Experiments:
[1] = biological target: T1, Oct4 (recombinant);Sox2 (recombinant) (mouse?;mouse?, UniProt P20263;P48432 1-352;1-319, |); experiment: EMSA; Oct4-Sox2-Oct4 complex (two Oct4, one Sox2); 10 mM Tris pH 8.0, 2 mM MgCl (so in the source), 100 mM KCl, 1.25 mM DTT, 5% glycerol, 0.0625% BSA, 19 ug/ml dGdC, 25 fmol probe in 16 ul, 10 min room temperature; 4% PAGE 0.25X TBE; conditions: protein: recombinant;recombinant; tags: ;; chain copies: 2;1
T1 sequence (P20263 whole entry, chain 1 of 2): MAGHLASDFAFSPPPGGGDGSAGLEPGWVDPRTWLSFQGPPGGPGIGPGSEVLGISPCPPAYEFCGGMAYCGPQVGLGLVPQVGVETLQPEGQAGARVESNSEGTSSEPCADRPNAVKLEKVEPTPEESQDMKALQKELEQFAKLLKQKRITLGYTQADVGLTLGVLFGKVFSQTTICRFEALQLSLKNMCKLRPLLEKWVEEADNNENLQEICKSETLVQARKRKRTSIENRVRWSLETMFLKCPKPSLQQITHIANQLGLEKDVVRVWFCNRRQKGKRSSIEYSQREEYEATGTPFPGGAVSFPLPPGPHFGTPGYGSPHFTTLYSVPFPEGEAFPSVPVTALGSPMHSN
T1 sequence (P48432 whole entry, chain 2 of 2): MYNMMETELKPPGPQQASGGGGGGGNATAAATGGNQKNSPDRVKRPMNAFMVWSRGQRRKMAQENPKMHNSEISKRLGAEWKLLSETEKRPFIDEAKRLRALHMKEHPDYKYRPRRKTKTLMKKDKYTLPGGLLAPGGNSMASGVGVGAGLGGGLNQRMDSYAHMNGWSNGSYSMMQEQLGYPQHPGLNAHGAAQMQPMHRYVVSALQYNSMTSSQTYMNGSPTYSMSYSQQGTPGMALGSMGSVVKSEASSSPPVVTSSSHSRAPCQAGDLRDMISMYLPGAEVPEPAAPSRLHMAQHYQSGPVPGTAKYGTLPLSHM

[2] = biological target: T1, Oct4 (recombinant);Sox2 (recombinant); experiment: EMSA; cooperative ternary complex; versus independent binding; 10 mM Tris pH 8.0, 2 mM MgCl (so in the source), 100 mM KCl, 1.25 mM DTT, 5% glycerol, 0.0625% BSA, 19 ug/ml dGdC, 25 fmol probe in 16 ul, 10 min room temperature; 4% PAGE 0.25X TBE; conditions: protein: recombinant;recombinant; tags: ;; copies: 1;1
[3] = biological target: T1, Oct4 (recombinant);Sox2 (recombinant); experiment: EMSA; all CpGs methylated; complex not inhibited; 10 mM Tris pH 8.0, 2 mM MgCl (so in the source), 100 mM KCl, 1.25 mM DTT, 5% glycerol, 0.0625% BSA, 19 ug/ml dGdC, 25 fmol probe in 16 ul, 10 min room temperature; 4% PAGE 0.25X TBE; conditions: protein: recombinant;recombinant; tags: ;; copies: 1;1
[4] = biological target: T1, Oct4 (recombinant);Sox2 (recombinant); experiment: EMSA; cooperative ternary complex; printed as at least 50 fold; 10 mM Tris pH 8.0, 2 mM MgCl (so in the source), 100 mM KCl, 1.25 mM DTT, 5% glycerol, 0.0625% BSA, 19 ug/ml dGdC, 25 fmol probe in 16 ul, 10 min room temperature; 4% PAGE 0.25X TBE; conditions: protein: recombinant;recombinant; tags: ;; copies: 1;1
[5] = biological target: T1, Oct4 (recombinant);Sox2 (recombinant); experiment: EMSA; several complexes, minor one likely full occupancy; 10 mM Tris pH 8.0, 2 mM MgCl (so in the source), 100 mM KCl, 1.25 mM DTT, 5% glycerol, 0.0625% BSA, 19 ug/ml dGdC, 25 fmol probe in 16 ul, 10 min room temperature; 4% PAGE 0.25X TBE; conditions: protein: recombinant;recombinant; tags: ;; copies: 1;1

B1: human ICR A2 OctA/Sox-OctB, upstream Sox site mutant (dsDNA)
DNA 1: CGCGGAGATGCTAATTTAGGAGCTTGAGATGCTAAAGAGCTG
DNA 2: CAGCTCTTTAGCATCTCAAGCTCCTAAATTAGCATCTCCGCG
[1]
  binding result: binds

B2: ICR Sox-OctA (dsDNA)
DNA 1: CTGGTGATTTGCGCTTTCGTATTCTAATTGGGGAC
DNA 2: GTCCCCAATTAGAATACGAAAGCGCAAATCACCAG
[2]
  binding result: binds

B3: A* (methylated Sox-OctA) (dsDNA)
DNA 1: B2 DNA 1
DNA 2: B2 DNA 2
modifications: CpG methylated at all CpGs
[3]
  binding result: binds

B4: ICR Sox-OctB (dsDNA)
DNA 1: TTGGGGCGTTCAGATGCTAATGATCTCCGGCT
DNA 2: AGCCGGAGATCATTAGCATCTGAACGCCCCAA
[4]
  binding signal: > 50 fold ternary complex over that expected from independent binding

B5: B* (methylated Sox-OctB) (dsDNA)
DNA 1: B4 DNA 1
DNA 2: B4 DNA 2
modifications: CpG methylated at all CpGs
[3]
  binding result: binds

B6: mouse ICR Sox-OctA+B (both motifs) (dsDNA)
DNA 1: TTTCGTATTCTAATTGGGGCGTTCAGATGCTAATGATCTC
DNA 2: GAGATCATTAGCATCTGAACGCCCCAATTAGAATACGAAA
[5]
  binding result: binds
